Reference: patent publication US20250230251A1

Target: extracellular matrix (ECM) proteins
Assay: ECM (Matrigel) ELISA, 1 µM antibody

Substance | ECM score
high control mAb (antibody) | 24.2
low control mAb (antibody) | 1.1
